B1: 9G8 IgG2 VH wt/VL C33A (antibody, V domains shown)
VH: QLQLQESGPGLVKPSETLSLSCTVSGGSISSSSSYWGLIRQPPGKGLEWIGSIYYSGSTYYSPSLKSRVSISVDTSKNQFSLKLSSVTAADTAVYFCARQGYGGHPDVFDIWGQGTMVTVSS
VL: SSELTQSPSVSVSPGQTARITCSGDKLGDVYVAWYQQKTGQSPVLVIYEDTKRPSGIPERFSGSNSGNTATLTISGTQVMDEADYYCQAWDSTTAVIFGGGTKLTVL
notes: IgG2
B2: 9G8 IgG2 VH wt/VL C33D (antibody, V domains shown)
VH: QLQLQESGPGLVKPSETLSLSCTVSGGSISSSSSYWGLIRQPPGKGLEWIGSIYYSGSTYYSPSLKSRVSISVDTSKNQFSLKLSSVTAADTAVYFCARQGYGGHPDVFDIWGQGTMVTVSS
VL: SSELTQSPSVSVSPGQTARITCSGDKLGDVYVDWYQQKTGQSPVLVIYEDTKRPSGIPERFSGSNSGNTATLTISGTQVMDEADYYCQAWDSTTAVIFGGGTKLTVL
notes: IgG2
B3: 9G8 IgG2 VH wt/VL C33R (antibody, V domains shown)
VH: QLQLQESGPGLVKPSETLSLSCTVSGGSISSSSSYWGLIRQPPGKGLEWIGSIYYSGSTYYSPSLKSRVSISVDTSKNQFSLKLSSVTAADTAVYFCARQGYGGHPDVFDIWGQGTMVTVSS
VL: SSELTQSPSVSVSPGQTARITCSGDKLGDVYVRWYQQKTGQSPVLVIYEDTKRPSGIPERFSGSNSGNTATLTISGTQVMDEADYYCQAWDSTTAVIFGGGTKLTVL
notes: IgG2
B4: 9G8 IgG2 VH wt/VL C33G (antibody, V domains shown)
VH: QLQLQESGPGLVKPSETLSLSCTVSGGSISSSSSYWGLIRQPPGKGLEWIGSIYYSGSTYYSPSLKSRVSISVDTSKNQFSLKLSSVTAADTAVYFCARQGYGGHPDVFDIWGQGTMVTVSS
VL: SSELTQSPSVSVSPGQTARITCSGDKLGDVYVGWYQQKTGQSPVLVIYEDTKRPSGIPERFSGSNSGNTATLTISGTQVMDEADYYCQAWDSTTAVIFGGGTKLTVL
notes: IgG2
B5: 9G8 IgG2 VH wt/VL C33Y (antibody, V domains shown)
VH: QLQLQESGPGLVKPSETLSLSCTVSGGSISSSSSYWGLIRQPPGKGLEWIGSIYYSGSTYYSPSLKSRVSISVDTSKNQFSLKLSSVTAADTAVYFCARQGYGGHPDVFDIWGQGTMVTVSS
VL: SSELTQSPSVSVSPGQTARITCSGDKLGDVYVYWYQQKTGQSPVLVIYEDTKRPSGIPERFSGSNSGNTATLTISGTQVMDEADYYCQAWDSTTAVIFGGGTKLTVL
notes: IgG2
B6: 2H10 IgG2 VH M93V/VL C33S (antibody, V domains shown)
VH: QVQLVESGGGVVQPGRSLRLSCAASGFTFSRHGMHWVRQAPGKGLEWVAVVWFDGSNIYYADSVKGRFTISRDNSKNTLYLQMNSLRAEDTAVYYCARDSRIAAADYWGQGTLVTVSS
VL: SYELTQPPSVSVSPGQTVSITCSGDKLGDKYVSWYQQKPGQSPVLVIYQESKRPSGIPERFSGSSSGNTATLTISGTQAMDEADYYCQTWDSSLVVFGGGTKLTVL
notes: IgG2
B7: 2H10 IgG2 VH M93V/VL wt (antibody, V domains shown)
VH: QVQLVESGGGVVQPGRSLRLSCAASGFTFSRHGMHWVRQAPGKGLEWVAVVWFDGSNIYYADSVKGRFTISRDNSKNTLYLQMNSLRAEDTAVYYCARDSRIAAADYWGQGTLVTVSS
VL: SYELTQPPSVSVSPGQTVSITCSGDKLGDKYVCWYQQKPGQSPVLVIYQESKRPSGIPERFSGSSSGNTATLTISGTQAMDEADYYCQTWDSSLVVFGGGTKLTVL
notes: IgG2
B8: 2H10 IgG2 VH wt/VL C33A (antibody, V domains shown)
VH: QVQLVESGGGVVQPGRSLRLSCAASGFTFSRHGMHWVRQAPGKGLEWVAVVWFDGSNIYYADSVKGRFTISRDNSKNTLYLQMNSLRAEDTAMYYCARDSRIAAADYWGQGTLVTVSS
VL: SYELTQPPSVSVSPGQTVSITCSGDKLGDKYVAWYQQKPGQSPVLVIYQESKRPSGIPERFSGSSSGNTATLTISGTQAMDEADYYCQTWDSSLVVFGGGTKLTVL
notes: IgG2
B9: 2H10 IgG2 VH wt/VL C33G (antibody, V domains shown)
VH: QVQLVESGGGVVQPGRSLRLSCAASGFTFSRHGMHWVRQAPGKGLEWVAVVWFDGSNIYYADSVKGRFTISRDNSKNTLYLQMNSLRAEDTAMYYCARDSRIAAADYWGQGTLVTVSS
VL: SYELTQPPSVSVSPGQTVSITCSGDKLGDKYVGWYQQKPGQSPVLVIYQESKRPSGIPERFSGSSSGNTATLTISGTQAMDEADYYCQTWDSSLVVFGGGTKLTVL
notes: IgG2
B10: 2H10 IgG2 VH wt/VL C33R (antibody, V domains shown)
VH: QVQLVESGGGVVQPGRSLRLSCAASGFTFSRHGMHWVRQAPGKGLEWVAVVWFDGSNIYYADSVKGRFTISRDNSKNTLYLQMNSLRAEDTAMYYCARDSRIAAADYWGQGTLVTVSS
VL: SYELTQPPSVSVSPGQTVSITCSGDKLGDKYVRWYQQKPGQSPVLVIYQESKRPSGIPERFSGSSSGNTATLTISGTQAMDEADYYCQTWDSSLVVFGGGTKLTVL
notes: IgG2
B11: 2H10 IgG2 VH wt/VL C33D (antibody, V domains shown)
VH: QVQLVESGGGVVQPGRSLRLSCAASGFTFSRHGMHWVRQAPGKGLEWVAVVWFDGSNIYYADSVKGRFTISRDNSKNTLYLQMNSLRAEDTAMYYCARDSRIAAADYWGQGTLVTVSS
VL: SYELTQPPSVSVSPGQTVSITCSGDKLGDKYVDWYQQKPGQSPVLVIYQESKRPSGIPERFSGSSSGNTATLTISGTQAMDEADYYCQTWDSSLVVFGGGTKLTVL
notes: IgG2

The binders below were run against T1, full length human DLL4 (human, UniProt Q9NR61 27-685) (assay: FACS competition vs Notch1/Fc, HEK293 cells with human DLL4).
T1 construct: whole, on cells; also called native DLL4 expressed in HEK293 cells
Procedure: Further experiments were performed on selected antibodies using HEK293 cells that were stably transfected with either human, mouse or cynomolgus monkey DLL4 using retroviral constructs. In these experiments, anti-DLL4 antibodies (final concentration: 10-0.01 μg/ml) diluted in PBS containing 2% FCS were added to DLL4-expressing HEK 293 cells (50000 cells/well diluted in PBS containing 2% FCS) and incubated for 1 h at 4° C. Subsequently, Alexa-647 labeled human, rat or APC labeled mouse Notch1/Fc (e.g. R&D Systems, catalog #3647-TK-050, 1057-TK-050, 5267-TK-050, respectively) was added at a final concentration of 0.01-0.5 μg/ml and plates were incubated for a further 2 h at 4° C. prior to washing and reading on a FACSCalibur instrument.
The activity of the mutated antibodies was assessed in two ways: firstly, the ability of the antibodies to block the binding of soluble Notch1/Fc to full length human DLL4 stably expressed in HEK293 cells as described in Example 3 was determined and, secondly, the binding of the antibodies to the same cell line used in the receptor-ligand competition studies was determined. For the binding studies, HEK293 cells stably overexpressing human DLL4 were resuspended in PBS containing 2% FCS at a concentration of 50,000 cells/well and incubated with titrations of antibody (final concentrations 0.01-10 μg/ml) for 1 h at 4° C. The cells were then washed and incubated with 0.31 μg/ml anti-human IgG-Fc-FITC (BD Pharmingen, cat#555786) for 30 minutes at 4° C. Bound […] was detected using FACS analysis. Results of these studies are summarized in Table 23, which show the effects of specific mutations to sequences of 9G8 and 2H10 on the ability of the antibodies to compete with Notch1 for binding to human DLL4 or to bind to human DLL4 relative to unmutated antibodies.

T1 sequence (Q9NR61 27-685): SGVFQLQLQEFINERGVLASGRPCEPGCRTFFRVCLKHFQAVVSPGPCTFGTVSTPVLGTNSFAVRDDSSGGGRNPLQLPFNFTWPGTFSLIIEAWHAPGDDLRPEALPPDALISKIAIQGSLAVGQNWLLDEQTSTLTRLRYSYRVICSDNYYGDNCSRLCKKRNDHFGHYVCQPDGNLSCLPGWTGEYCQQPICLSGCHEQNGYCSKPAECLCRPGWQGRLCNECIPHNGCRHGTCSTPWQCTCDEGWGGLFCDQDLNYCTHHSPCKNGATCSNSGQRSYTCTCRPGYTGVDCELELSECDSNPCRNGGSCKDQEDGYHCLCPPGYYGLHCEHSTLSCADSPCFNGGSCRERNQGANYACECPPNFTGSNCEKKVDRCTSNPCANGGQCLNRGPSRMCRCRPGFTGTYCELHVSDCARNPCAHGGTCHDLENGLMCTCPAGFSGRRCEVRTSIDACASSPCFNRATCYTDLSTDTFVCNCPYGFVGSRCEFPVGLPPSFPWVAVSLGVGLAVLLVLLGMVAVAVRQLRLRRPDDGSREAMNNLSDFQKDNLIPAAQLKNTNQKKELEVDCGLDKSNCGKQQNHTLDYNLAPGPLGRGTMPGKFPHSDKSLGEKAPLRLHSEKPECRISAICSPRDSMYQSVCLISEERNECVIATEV

In order of falling IC50:
1. B10  2.97 µg/mL
2. B4  0.358 µg/mL
3. B2  0.345 µg/mL
4. B5  0.32 µg/mL
5. B9  0.314 µg/mL
6. B1  0.302 µg/mL
7. B7  0.264 µg/mL
8. B3  0.201 µg/mL
9. B11  0.178 µg/mL
10. B8  0.174 µg/mL
11. B6  0.138 µg/mL

Reference: patent US20100196385A1 (AstraZeneca / MedImmune, published 2010)
